The source of these data is patent US20190023770A1.

Holding throughout (experiment): cell-based or functional assay
In assay [1] the target is hemagglutinin of influenza A virus H3N2 A/Aichi/2/1968 (influenza A virus A/Aichi/2/1968 (H3N2)) (UniProt P03437).
Assay [2] has as its target hemagglutinin of influenza A virus H3N2 A/Hong Kong/1/1968 (influenza A virus A/Hong Kong/1/1968 (H3N2)) (UniProt Q91MA7).
The target in assay [3] is hemagglutinin of influenza A virus H3N2 A/Port Chalmers/1/1973 (influenza A virus A/Port Chalmers/1/1973 (H3N2)).

Residue numbers refer to the chain shown, from its start.

B1: monoclonal antibody 39.29 NWPP (antibody, V domains shown)
VH: EVQLVESGGGVVQPGKSLRLSCAASGLTFSSYAVHWVRQAPGKGLEWVTLISYDGANQYYADSVKGRFTISRDNSKNTVYLQMNSLRPEDTAVYYCAVPGPVFGIFPPWSYFDNWGQGILVTVSS
VL: EIVLTQSPATLSVSPGERATLSCRASQVISHNLAWYQQKPGQAPRLLIYGASTRASGIPARFSGSGSGTDYTLTITSLQSEDFAVYYCQHYSNWPPRLTFGGGTKVEIK
For the molecule B1, the in vitro IC50 (neutralization of virus infection of MDCK cells) was found to be 35 nM in assay [1], 45.1 nM in assay [2] and 2.2 nM in assay [3].

B2: monoclonal antibody 39.29 NCv1 (antibody, V domains shown)
VH: B1 VH with E1Q, L18P, L27P
VL: B1 VL with S80P
For the molecule B2, the in vitro IC50 (neutralization of virus infection of MDCK cells) was determined as 35 nM in assay [1] and 2.9 nM in assay [3].
